Here are results for three molecules from US20250101098A1 (R P SCHERER TECHNOLOGIES, published 2025).

The target in assay [1] is T1, human nectin-4 protein expressed on the surface of cells (human, UniProt Q96NY8 32-510).
T1 sequence: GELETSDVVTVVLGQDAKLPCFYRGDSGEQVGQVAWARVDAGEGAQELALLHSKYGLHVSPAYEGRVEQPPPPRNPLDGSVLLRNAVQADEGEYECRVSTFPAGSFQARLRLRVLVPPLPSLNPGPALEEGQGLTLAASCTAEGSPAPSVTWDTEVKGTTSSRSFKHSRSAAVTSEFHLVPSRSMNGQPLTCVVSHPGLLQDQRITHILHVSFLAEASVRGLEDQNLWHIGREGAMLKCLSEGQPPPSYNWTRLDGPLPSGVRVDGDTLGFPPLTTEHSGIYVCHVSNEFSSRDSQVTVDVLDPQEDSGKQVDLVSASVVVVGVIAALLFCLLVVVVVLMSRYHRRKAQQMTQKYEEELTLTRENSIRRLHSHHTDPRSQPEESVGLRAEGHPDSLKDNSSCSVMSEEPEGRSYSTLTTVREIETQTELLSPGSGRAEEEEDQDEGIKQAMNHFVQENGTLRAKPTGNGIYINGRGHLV
The assay is described as follows: cell-based or functional assay.

Assay [2] concerns the target T2, cynomolgus monkey nectin-4 protein expressed on the surface of HEK 293 cells (cynomolgus monkey, UniProt A0A2K5WES1 32-510).
T2 construct: whole, on cells
T2 sequence: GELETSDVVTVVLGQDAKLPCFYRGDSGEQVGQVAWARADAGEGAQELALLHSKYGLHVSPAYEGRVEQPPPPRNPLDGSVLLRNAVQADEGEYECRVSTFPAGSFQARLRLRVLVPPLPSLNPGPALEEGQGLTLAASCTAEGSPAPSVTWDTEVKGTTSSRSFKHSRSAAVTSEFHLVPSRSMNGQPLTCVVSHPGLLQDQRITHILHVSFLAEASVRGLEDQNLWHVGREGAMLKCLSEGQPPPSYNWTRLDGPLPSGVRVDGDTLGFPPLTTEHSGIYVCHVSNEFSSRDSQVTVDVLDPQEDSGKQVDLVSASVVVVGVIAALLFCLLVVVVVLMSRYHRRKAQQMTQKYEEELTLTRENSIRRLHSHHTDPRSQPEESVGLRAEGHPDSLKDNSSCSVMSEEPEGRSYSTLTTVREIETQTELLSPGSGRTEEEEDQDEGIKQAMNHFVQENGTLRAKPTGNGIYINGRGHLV
The assay is described as follows: flow cytometry, HEK 293 cells overexpressing the target. As to the method:
(§1) Human embryonic kidney (HEK) 293 cells overexpressing human, cynomolgus monkey, rat, or mouse nectin-4 protein were produced. Cells were lifted with Versene to preserve cell surface proteins and were resuspended at 10e6/mL in PBS+2% FBS. 100 μl was added to a flow tube to test […]. Primary antibodies were diluted to […] and 10 μL was added for a total of 1 μg/test. Primary antibodies (or ADCs) were incubated with cells for 1 h on ice. Then, cells were washed 1× in 2 mL PBS+2% FBS and secondary antibody was added for detection. AF488-conjugated anti-human antibody from Jackson Immunoresearch, diluted according to the manufacturer's instructions+50% glycerol, was used at 1 μL/test-diluted to ⅕ the concentration in PBS+2% FBS and 5 μL were added per tube. The secondary reagent was incubated with the cells for 30 min, then cells were washed 2× in PBS+2% FBS and analyzed by flow cytometry on a BD FacsCanto instrument equipped with FACSDiva software.
(§2) Lead clones were tested for binding to human, cynomolgus monkey, rat, or mouse nectin-4 protein expressed on the surface of HEK 293 cells. Enfortumab was included as a positive control and an anti-FITC reactive antibody was included as a negative control.
(In flow cytometry, cells or beads pass a laser one at a time.)

Assay [3] addresses T1, human nectin-4 protein expressed on the …. The description is as above. As to the method:
as §1, §2

Assay [4] has as its target T3, rat nectin-4 protein expressed on the surface of HEK 293 cells (rat, UniProt D3ZET1 31-509).
T3 construct: whole, on cells
T3 sequence: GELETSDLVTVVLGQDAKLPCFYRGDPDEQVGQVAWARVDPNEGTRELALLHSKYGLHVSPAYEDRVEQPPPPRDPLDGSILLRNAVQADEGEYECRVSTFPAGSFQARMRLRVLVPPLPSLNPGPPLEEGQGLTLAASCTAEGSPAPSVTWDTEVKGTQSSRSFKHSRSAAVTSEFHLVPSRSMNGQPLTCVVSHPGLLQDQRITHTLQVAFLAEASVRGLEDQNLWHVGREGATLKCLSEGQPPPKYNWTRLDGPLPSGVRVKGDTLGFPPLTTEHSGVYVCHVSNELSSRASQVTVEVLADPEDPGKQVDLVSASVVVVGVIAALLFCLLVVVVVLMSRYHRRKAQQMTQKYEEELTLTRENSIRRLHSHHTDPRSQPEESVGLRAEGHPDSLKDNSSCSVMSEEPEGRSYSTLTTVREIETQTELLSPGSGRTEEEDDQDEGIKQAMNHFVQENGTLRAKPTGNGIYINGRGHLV
Described as above. On the procedure:
as §1, §2

For assay [5], the target named is T4, mouse nectin-4 protein expressed on the surface of HEK 293 cells (mouse, UniProt Q8R007 31-508).
T4 construct: whole, on cells
T4 sequence (looked up): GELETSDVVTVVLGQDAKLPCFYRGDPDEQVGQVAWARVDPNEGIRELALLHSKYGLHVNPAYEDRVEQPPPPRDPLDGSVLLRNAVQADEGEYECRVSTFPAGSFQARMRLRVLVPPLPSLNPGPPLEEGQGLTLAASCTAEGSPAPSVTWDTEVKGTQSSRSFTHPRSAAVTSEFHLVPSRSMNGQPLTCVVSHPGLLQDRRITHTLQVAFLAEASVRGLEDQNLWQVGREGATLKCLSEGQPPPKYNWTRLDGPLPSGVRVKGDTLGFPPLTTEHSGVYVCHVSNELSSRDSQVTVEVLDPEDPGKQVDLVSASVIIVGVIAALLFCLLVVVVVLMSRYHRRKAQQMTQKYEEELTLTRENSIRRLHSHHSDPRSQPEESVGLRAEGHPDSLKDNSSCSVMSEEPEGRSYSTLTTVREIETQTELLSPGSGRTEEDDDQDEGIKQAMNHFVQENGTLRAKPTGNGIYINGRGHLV
The assay is described as above. As to the method:
as §1, §2

The target of assay [6] is T5, recombinant human Nectin-4-His protein (human, UniProt Q96NY8 32-349).
T5 construct: Rescreening antigen and bought ELISA antigen are treated as one molecule; also called human Nectin-4-His tagged; Ag1; not shown: His tag
T5 sequence: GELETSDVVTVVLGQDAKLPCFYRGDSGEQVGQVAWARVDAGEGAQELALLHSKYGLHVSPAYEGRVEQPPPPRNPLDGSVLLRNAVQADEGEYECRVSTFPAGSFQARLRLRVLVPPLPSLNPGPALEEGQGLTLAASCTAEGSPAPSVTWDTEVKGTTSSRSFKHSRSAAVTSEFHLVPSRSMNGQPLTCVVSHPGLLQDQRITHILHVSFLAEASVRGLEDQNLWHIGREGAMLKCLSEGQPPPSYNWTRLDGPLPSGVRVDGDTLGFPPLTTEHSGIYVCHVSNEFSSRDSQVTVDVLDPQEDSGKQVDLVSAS
The assay is described as follows: ELISA, recombinant antibody on coated antigen.

Assay [7] has as its target T1, human nectin-4 protein expressed on the …. The assay is described as follows: cell-based or functional assay. This is another data set of the same source.
For assay [8], the target named is T5, recombinant human Nectin-4-His protein. The assay is described as follows: ELISA, coated antigen. On the technique in general: An ELISA detects its analyte on a solid surface through an enzyme-linked reagent.
The target in assay [9] is T6, human nectin-4 protein expressed on the surface of cells (human, UniProt Q96NY8 32-510). The assay is described as follows: cell-based or functional assay. The source holds these as a separate data set.
For assay [10], the target named is T6, human nectin-4 protein expressed on the …. Briefly: flow cytometry, HEK 293 cells overexpressing the target. On the procedure:
as §1, §2

B1: Nectin-4 12E11H/12E11L (recombinant chimeric antibody) (antibody, V domains shown)
VH: QVQLKQSGPGLVQPSQSLSITCTVSGFSLTTYGVHWVRQSPGKGLEWLGVIWSGGSTDCNGAFISRLSIIKDNSKSQVFFKMNSLQADDTAIYYCARMTHWYFDVWGTGTTVTVSS
VL: DIVMTQSQKFMSTTVGDRVSITCKASQNVNTAVAWYQQKPGQSPKLLIYSASYRYTGVPDRFTGSGSGTDFTLTISNMQSEDLADYFCQQYSNYPLTFGAGTKLELK
notes: also called parental 12E11 clone
By EC50 is commonly meant the concentration giving half of the maximal effect. For B1, the “IC50, in vitro potency, HEK Cells + Nectin-4” value (“IC50, in vitro potency” below) in assay [1] is 0.987 nM. Moreover, the Flow data is 10400 in assay [2], 8620 in assay [3], 1900 in assay [4] and 230 in assay [5]. Also, the EC50 in assay [6] was 0.252 nM.

B2: Nectin-4 5D9H/5D9L (recombinant chimeric antibody) (antibody, V domains shown)
VH: QVQLKQSGPGLVQPSQSLSITCTVSGFSLTNYGVHWVRQSPGKGLEWLGVIWSGGSTDYNAAFVSRLSISRDNSKSQVFFKMNSLQADDTAIYYCARSGKWYYFDYWGQGTTLTVSS
VL: DIQMTQSPASLSVSVGETVTITCRASENIYSNLAWYQQKQGKSPQLLVYAATNLADGVPSRFSGSGSGTQYSLKINSLQSEDFGSYYCQHFWGTPTFGGGTKLEIK
notes: also called Nectin-4 5D9 chimeric mAb
For B2, the “IC50, in vitro potency” value in assay [1] was 0.446 nM. Moreover, the “Cell kill IC50, HekNectin4” value in assay [7] was 0.207 nM. The “Cell kill IC50, MDA-MB468” value in assay [7] came to 1.31 nM. In addition, the “Cell kill IC50, SKBR3” value in assay [7] stood at 8.47 nM. Moreover, the Flow data in assay [2] amounted to 12600; in [3], 11200; in assay [4] it was 2140; in assay [5], 189. For the same molecule, the EC50 is 0.192 nM in assay [6] and 0.191 nM in assay [8].

B3: Enfortumab (antibody, V domains shown)
VH: EVQLVESGGGLVQPGGSLRLSCAASGFTFSSYNMNWVRQAPGKGLEWVSYISSSSSTIYYADSVKGRFTISRDNAKNSLSLQMNSLRDEDTAVYYCARAYYYGMDVWGQGTTVTVSS
VL: DIQMTQSPSSVSASVGDRVTITCRASQGISGWLAWYQQKPGKAPKFLIYAASTLQSGVPSRFSGSGSGTDFTLTISSLQPEDFATYYCQQANSFPPTFGGGTKVEIKR
As to B3, the “IC50, in vitro potency” value in [9] was 0.685 nM. The Flow data in assay [10] is 17100; in assay [2], 20000; in [4], 45500; in assay [5], 3220.
